The labels stand for the following.
B3: GST-LCoR (other)
chain: MQRMIQQFAAEYTSKNSSTQDPSQPNSTKNQSLPKASPVTTSPTAATTQNPVLSKLLMADQDSPLDLTVRKSQSEPSEQDGVLDLSTKKSPCAGSTSLSHSPGCSSTQGNGRPGRPSQYRPDGLRSGDGVPPRSLQDGTREGFGHSTSLKVPLARSLQISEELLSRNQLSTAASLGPSGLQNHGQHLILSREASWAKPHYEFNLSRMKFRGNGALSNISDLPFLAENSAFPKMALQAKQDGKKDVSHSSPVDLKIPQVRGMDLSWESRTGDQYSYSSLVMGSQTESALSKKLRAILPKQSRKSMLDAGPDSWGSDAEQSTPGQPYPTSDQEGDPGSKQPRKKRGRYRQYNSEILEEAISVVMSGKMSVSKAQSIYGIPHSTLEYKVKERLGTLKNPPKKKMKLMRSEGPDVSVKIELDPQGEAAQSANESKNE
notes: also called GST fused to LCoR; not shown: glutathione S-transferase (GST) tag of vector pGEX2TK

In the assay “GST-LCoR” the target is B3. The assay is described as follows: GST pull-down.
Another assay deals with T1, ERα-EYFP fusion protein (UniProt P03372 1-595).
T1 construct: also called EYFP-ERα; not shown: EYFP (engineered fluorescent protein) of vector pEYFP-CMV
T1 sequence (looked up): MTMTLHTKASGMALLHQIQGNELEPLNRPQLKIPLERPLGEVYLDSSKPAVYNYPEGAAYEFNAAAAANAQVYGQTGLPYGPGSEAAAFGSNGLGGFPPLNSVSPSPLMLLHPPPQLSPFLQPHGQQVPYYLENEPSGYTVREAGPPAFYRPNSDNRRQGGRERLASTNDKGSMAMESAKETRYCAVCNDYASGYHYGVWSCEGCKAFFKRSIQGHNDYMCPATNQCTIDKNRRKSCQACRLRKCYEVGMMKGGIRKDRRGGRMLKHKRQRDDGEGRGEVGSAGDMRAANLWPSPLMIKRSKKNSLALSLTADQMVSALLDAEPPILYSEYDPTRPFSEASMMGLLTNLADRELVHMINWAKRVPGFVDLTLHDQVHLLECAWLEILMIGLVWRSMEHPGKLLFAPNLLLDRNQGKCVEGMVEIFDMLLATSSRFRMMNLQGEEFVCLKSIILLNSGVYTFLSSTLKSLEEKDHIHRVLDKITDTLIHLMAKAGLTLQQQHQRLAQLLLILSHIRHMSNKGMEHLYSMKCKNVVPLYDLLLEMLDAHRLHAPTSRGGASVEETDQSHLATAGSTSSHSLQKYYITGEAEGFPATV
The assay is described as follows: BRET in living COS-7 cells. The method, then:
Cells were washed (2×) with PBS and harvested with 500 μl of PBS-5 mM EDTA. […] Readings were started immediately after coelenterazine H addition, and 10 repeated measures were taken.
BRET ratios were calculated as described in experimental procedures.

Another assay concerns the target T2, HDAC4 (UniProt P56524 1-1084, limits assumed).
T2 construct: also called histone deacetylase 4
Put plainly: GST pull-down, in vitro translated HDAC.

Another assay has as its target T3, HDAC1 (UniProt Q13547 1-482).
T3 construct: also called histone deacetylase 1
Put plainly: GST pull-down, in vitro translated HDAC.

In assay [1] the target is CtBP1 (C-terminal binding protein 1) (human, UniProt Q13363 1-440). The assay is described as follows: coimmunoprecipitation with anti-CtBP antibody from transfected MCF-7 cells.
Description: For immunoprecipitation of endogenous CtBP, CtIP, Rb, or Bmi1, MCF-7 cells in 150 mm dishes were lysed 3 min at 4° C. in 1 ml of LB (150 mM NaCl/10 mM Tris-HCl pH 7.4/0.2 mM Na orthovanadate/1 mM EDTA/1 mM EGTA/1% Triton-100X/0.5% IGEPAL CA-630/protease inhibitor cocktail; Boehringer-Mannheim, Laval, Qc). Cell debris were pelleted by centrifugation (14,000 rpm, 5 min), and proteins immunoprecipitated with 4 μg of αCtBP or αCtIP or αRb or polyclonal rabbit αBMI1 or control rabbit or goat IgG at 4° C. overnight followed by 2 hours incubation at 4° C. with protein A agarose (for αCtBP, αBmi1, control rabbit IgG) or protein A+G agarose (for αCtIP or αRb or control goat IgG). Beads were washed (3×) with LB. […] For immunoprecipitation of tagged proteins, transfected MCF-7 cells were lysed 30 min at 4° C. in 1 ml of LB, 48 h after transfection. Supernatants were cleared, incubated overnight with 4 μg of aCtBP or α-Flag M2 antibody followed by 2 hours incubation with protein-A agarose or protein A+G agarose beads respectively. Beads were washed (3×) with LB and Western blotted as above. Dilutions of specific antibodies used for Western blotting were: α-CtBP1 , α-CtBP2 (1:100), α-Flag M2-peroxidase (1:100).
Another assay addresses T4, GST-TIF2.1 (UniProt Q15596 624-1287).
T4 construct: also called GST fused to TIF2.1; not shown: glutathione S-transferase (GST) tag of vector pGEX2T
T4 sequence (looked up): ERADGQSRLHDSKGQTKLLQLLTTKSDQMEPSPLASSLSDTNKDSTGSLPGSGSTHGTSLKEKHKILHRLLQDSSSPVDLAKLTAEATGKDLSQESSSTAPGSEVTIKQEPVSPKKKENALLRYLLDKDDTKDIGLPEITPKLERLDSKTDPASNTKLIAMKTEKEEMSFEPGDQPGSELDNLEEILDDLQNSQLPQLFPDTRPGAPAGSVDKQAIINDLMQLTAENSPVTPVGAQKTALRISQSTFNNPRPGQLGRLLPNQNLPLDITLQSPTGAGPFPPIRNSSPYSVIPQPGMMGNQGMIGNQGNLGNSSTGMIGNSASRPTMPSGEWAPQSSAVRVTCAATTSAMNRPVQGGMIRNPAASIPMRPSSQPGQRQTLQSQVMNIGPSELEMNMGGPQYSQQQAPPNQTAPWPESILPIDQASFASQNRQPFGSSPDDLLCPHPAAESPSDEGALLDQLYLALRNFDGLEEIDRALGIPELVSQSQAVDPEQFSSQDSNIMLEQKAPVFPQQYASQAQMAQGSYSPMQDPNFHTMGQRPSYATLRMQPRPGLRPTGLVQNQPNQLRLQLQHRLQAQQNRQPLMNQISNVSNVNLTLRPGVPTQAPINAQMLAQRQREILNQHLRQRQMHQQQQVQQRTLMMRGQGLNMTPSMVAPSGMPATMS
The assay is described as follows: GST pull-down, in vitro translated ER378.

Data on seven molecules can be found in patent US20070054353A1 (published 2007).

T2 sequence (P56524 whole entry): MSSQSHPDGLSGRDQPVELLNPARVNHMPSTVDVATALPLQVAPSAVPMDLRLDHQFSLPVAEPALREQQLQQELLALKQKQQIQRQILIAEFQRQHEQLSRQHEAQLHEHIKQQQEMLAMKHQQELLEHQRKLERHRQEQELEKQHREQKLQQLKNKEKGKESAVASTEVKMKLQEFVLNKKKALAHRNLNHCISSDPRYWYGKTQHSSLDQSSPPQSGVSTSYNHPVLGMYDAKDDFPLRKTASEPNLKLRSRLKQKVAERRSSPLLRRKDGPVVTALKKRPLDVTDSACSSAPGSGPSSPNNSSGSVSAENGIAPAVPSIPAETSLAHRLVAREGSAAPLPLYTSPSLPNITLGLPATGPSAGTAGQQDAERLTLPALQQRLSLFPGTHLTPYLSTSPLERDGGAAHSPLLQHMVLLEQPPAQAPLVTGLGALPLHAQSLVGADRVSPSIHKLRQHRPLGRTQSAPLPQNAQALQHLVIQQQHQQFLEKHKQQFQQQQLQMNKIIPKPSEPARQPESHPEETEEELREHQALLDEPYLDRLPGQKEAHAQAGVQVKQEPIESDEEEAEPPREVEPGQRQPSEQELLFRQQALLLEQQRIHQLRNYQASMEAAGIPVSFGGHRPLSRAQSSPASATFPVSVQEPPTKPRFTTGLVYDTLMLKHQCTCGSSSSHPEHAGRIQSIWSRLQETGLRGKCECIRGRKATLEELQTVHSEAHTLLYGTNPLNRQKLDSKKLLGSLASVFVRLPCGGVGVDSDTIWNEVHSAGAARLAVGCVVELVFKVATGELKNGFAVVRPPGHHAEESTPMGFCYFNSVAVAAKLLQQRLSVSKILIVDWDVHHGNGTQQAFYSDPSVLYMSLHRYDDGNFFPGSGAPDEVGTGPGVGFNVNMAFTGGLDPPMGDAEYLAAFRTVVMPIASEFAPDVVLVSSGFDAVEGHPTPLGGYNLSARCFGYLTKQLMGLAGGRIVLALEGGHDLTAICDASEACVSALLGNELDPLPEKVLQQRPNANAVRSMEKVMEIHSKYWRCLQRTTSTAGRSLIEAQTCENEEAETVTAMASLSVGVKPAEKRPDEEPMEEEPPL
T3 sequence (Q13547 whole entry): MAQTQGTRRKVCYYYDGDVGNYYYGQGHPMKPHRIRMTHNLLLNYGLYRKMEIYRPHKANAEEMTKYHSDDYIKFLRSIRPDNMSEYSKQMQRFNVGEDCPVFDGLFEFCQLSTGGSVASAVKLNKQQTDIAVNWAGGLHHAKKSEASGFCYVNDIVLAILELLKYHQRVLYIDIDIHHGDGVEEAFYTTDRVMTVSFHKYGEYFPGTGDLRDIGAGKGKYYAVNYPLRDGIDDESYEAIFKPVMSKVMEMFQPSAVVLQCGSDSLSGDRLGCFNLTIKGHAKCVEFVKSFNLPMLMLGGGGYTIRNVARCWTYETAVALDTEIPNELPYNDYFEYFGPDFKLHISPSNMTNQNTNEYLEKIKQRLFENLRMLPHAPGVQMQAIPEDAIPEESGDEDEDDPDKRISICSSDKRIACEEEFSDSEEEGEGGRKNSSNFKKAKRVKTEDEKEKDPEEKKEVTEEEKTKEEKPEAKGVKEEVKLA

B1: HE15 (receptor, UniProt P03372 1-282, looked up)
chain: MTMTLHTKASGMALLHQIQGNELEPLNRPQLKIPLERPLGEVYLDSSKPAVYNYPEGAAYEFNAAAAANAQVYGQTGLPYGPGSEAAAFGSNGLGGFPPLNSVSPSPLMLLHPPPQLSPFLQPHGQQVPYYLENEPSGYTVREAGPPAFYRPNSDNRRQGGRERLASTNDKGSMAMESAKETRYCAVCNDYASGYHYGVWSCEGCKAFFKRSIQGHNDYMCPATNQCTIDKNRRKSCQACRLRKCYEVGMMKGGIRKDRRGGRMLKHKRQRDDGEGRGEVGS
notes: range 1-282; also called ERα truncated to amino acid 282 in region D
In the case of B1, in the assay with GST-LCoR, the binding result is given as “no binding”.

B2: LCoR-LSKAA-rluc fusion protein (other)
chain: MQRMIQQFAAEYTSKNSSTQDPSQPNSTKNQSLPKASPVTTSPTAATTQNPVLSKAAMADQDSPLDLTVRKSQSEPSEQDGVLDLSTKKSPCAGSTSLSHSPGCSSTQGNGRPGRPSQYRPDGLRSGDGVPPRSLQDGTREGFGHSTSLKVPLARSLQISEELLSRNQLSTAASLGPSGLQNHGQHLILSREASWAKPHYEFNLSRMKFRGNGALSNISDLPFLAENSAFPKMALQAKQDGKKDVSHSSPVDLKIPQVRGMDLSWESRTGDQYSYSSLVMGSQTESALSKKLRAILPKQSRKSMLDAGPDSWGSDAEQSTPGQPYPTSDQEGDPGSKQPRKKRGRYRQYNSEILEEAISVVMSGKMSVSKAQSIYGIPHSTLEYKVKERLGTLKNPPKKKMKLMRSEGPDVSVKIELDPQGEAAQSANESKNE
notes: also called rluc-LCoR-LSKAA; not shown: Renilla luciferase (rluc) of vector pRL-CMV
B2: in the assay with ERα-EYFP fusion protein, the “fold reduction of hormone-independent interaction against wild-type LCoR” value was about 2 fold. For B3, the binding result with HDAC4 and with HDAC1 was “no binding” in each case.

B4: GST-LSKAA (other)
chain: MQRMIQQFAAEYTSKNSSTQDPSQPNSTKNQSLPKASPVTTSPTAATTQNPVLSKAAMADQDSPLDLTVRKSQSEPSEQDGVLDLSTKKSPCAGSTSLSHSPGCSSTQGNGRPGRPSQYRPDGLRSGDGVPPRSLQDGTREGFGHSTSLKVPLARSLQISEELLSRNQLSTAASLGPSGLQNHGQHLILSREASWAKPHYEFNLSRMKFRGNGALSNISDLPFLAENSAFPKMALQAKQDGKKDVSHSSPVDLKIPQVRGMDLSWESRTGDQYSYSSLVMGSQTESALSKKLRAILPKQSRKSMLDAGPDSWGSDAEQSTPGQPYPTSDQEGDPGSKQPRKKRGRYRQYNSEILEEAISVVMSGKMSVSKAQSIYGIPHSTLEYKVKERLGTLKNPPKKKMKLMRSEGPDVSVKIELDPQGEAAQSANESKNE
notes: Positions 56 and 57 are counted from the printed motif start (53); also called GST-LCoR-LSKAA; GST fused to LCoR-LSKAA; not shown: glutathione S-transferase (GST) tag of vector pGEX2TK
As for B4, the binding result with HDAC4 and with HDAC1 was “no binding” each time.

B5: Flag-m1+2 (Flag-tagged LCoR mutated in both CtBP binding sites) (other, not shown: small tags and cut ends)
chain: MQRMIQQFAAEYTSKNSSTQDPSQPNSTKNQSLPKASPVTTSPTAATTQNPVLSKLLMADQDSKSQSEPSEQDGKSPCAGSTSLSHSPGCSSTQGNGRPGRPSQYRPDGLRSGDGVPPRSLQDGTREGFGHSTSLKVPLARSLQISEELLSRNQLSTAASLGPSGLQNHGQHLILSREASWAKPHYEFNLSRMKFRGNGALSNISDLPFLAENSAFPKMALQAKQDGKKDVSHSSPVDLKIPQVRGMDLSWESRTGDQYSYSSLVMGSQTESALSKKLRAILPKQSRKSMLDAGPDSWGSDAEQSTPGQPYPTSDQEGDPGSKQPRKKRGRYRQYNSEILEEAISVVMSGKMSVSKAQSIYGIPHSTLEYKVKERLGTLKNPPKKKMKLMRSEGPDVSVKIELDPQGEAAQSANESKNE
notes: also called LCoR derivative (m1+2)
Regarding B5, the binding result in assay [1] is given as “no binding”.

B6: ER378 (receptor, UniProt P03372 1-378, looked up)
chain: MTMTLHTKASGMALLHQIQGNELEPLNRPQLKIPLERPLGEVYLDSSKPAVYNYPEGAAYEFNAAAAANAQVYGQTGLPYGPGSEAAAFGSNGLGGFPPLNSVSPSPLMLLHPPPQLSPFLQPHGQQVPYYLENEPSGYTVREAGPPAFYRPNSDNRRQGGRERLASTNDKGSMAMESAKETRYCAVCNDYASGYHYGVWSCEGCKAFFKRSIQGHNDYMCPATNQCTIDKNRRKSCQACRLRKCYEVGMMKGGIRKDRRGGRMLKHKRQRDDGEGRGEVGSAGDMRAANLWPSPLMIKRSKKNSLALSLTADQMVSALLDAEPPILYSEYDPTRPFSEASMMGLLTNLADRELVHMINWAKRVPGFVDLTLHDQVHL
notes: In vitro translated
In the case of B6, the binding result with GST-TIF2.1 is recorded as “no binding”.

B7: ERα A/B domain (receptor, UniProt P03372 1-180, looked up)
chain: MTMTLHTKASGMALLHQIQGNELEPLNRPQLKIPLERPLGEVYLDSSKPAVYNYPEGAAYEFNAAAAANAQVYGQTGLPYGPGSEAAAFGSNGLGGFPPLNSVSPSPLMLLHPPPQLSPFLQPHGQQVPYYLENEPSGYTVREAGPPAFYRPNSDNRRQGGRERLASTNDKGSMAMESAK
notes: range 1-180; also called ERα truncated to amino acid 180
B7: the binding result with GST-LCoR is “no binding”.
